In patent US20140113872A1 (INSTITUT NATIONAL DE LA RECHERCHE SCIENTIFIQUE, published 2014):
Numbered stars: 1 amine (or outer) side, 2 acyl side, 3 side chain; on linkers, the order of the positions; unused ones are H or OH. Bridge positions count the residues as written; N and C are the ends. Square brackets hold non-standard residues; d marks the D form. Ends that are not written are not given here. dTiq = D-1,2,3,4-tetrahydroisoquinoline-1-carboxylic acid, O=C([C@H]1c2ccccc2CCN1[*:1])[*:2]; Bip = N[C@@H](Cc1ccc(-c2ccccc2)cc1)C(=O)O; Dip = N[C@H](C(=O)O)C(c1ccccc1)c1ccccc1; Phe(4-I) = N[C@@H](Cc1ccc(I)cc1)C(=O)O; 1Nal = N[C@@H](Cc1cccc2ccccc12)C(=O)O; d1Nal = N[C@H](Cc1cccc2ccccc12)C(=O)O; Tiq1c(1S) = O=C(O)[C@H]1NCCc2ccccc21; Tic = O=C(O)[C@@H]1Cc2ccccc2CN1; dTic = O=C(O)[C@H]1Cc2ccccc2CN1; Cha = N[C@@H](CC1CCCCC1)C(=O)O; dPhg = N[C@@H](C(=O)O)c1ccccc1; dTle = CC(C)(C)[C@@H](N)C(=O)O; Phg = N[C@H](C(=O)O)c1ccccc1; dAia = not defined here

B1: ^125I-URP (peptide)
peptide: H-ACFWKYCV-OH
modifications: disulfide 2-7; also: 125I-labelled, site not given here
notes: used at 0.2 nM; also called radiolabeled URP
B2: [Phg^4]URP (peptide)
peptide: H-ACF[Phg]KYCV-OH
modifications: disulfide 2-7
notes: H-Ala-Cys-Phe-Phg-Lys-Tyr-Cys-Val-OH; also called compound 14
B3: urotensin II-related peptide (URP) (peptide)
peptide: H-ACFWKYCV-OH
modifications: disulfide 2-7
SMILES: CC(C)[C@H](NC(=O)[C@@H]1CSSC[C@H](NC(=O)[C@H](C)N)C(=O)N[C@@H](Cc2ccccc2)C(=O)N[C@@H](Cc2c[nH]c3ccccc23)C(=O)N[C@@H](CCCCN)C(=O)N[C@@H](Cc2ccc(O)cc2)C(=O)N1)C(=O)O
B4: [D-Aia^4]URP (peptide)
peptide: ACF[dAia]KYCV
modifications: disulfide 2-7; not fully specified (bridges); reading uncertain; also: D-Aia indole ring bonded to Lys5 backbone N
notes: also called compound 13
B5: [1-Nal^4]URP (peptide)
peptide: H-ACF[1Nal]KYCV-OH
modifications: disulfide 2-7
notes: H-Ala-Cys-Phe-Nal-Lys-Tyr-Cys-Val-OH; also called compound 3
B6: [Phe(I)^4]URP (peptide)
peptide: H-ACF[Phe(4-I)]KYCV-OH
modifications: disulfide 2-7
notes: H-Ala-Cys-Phe-Phe(I)-Lys-Tyr-Cys-Val-OH; also called compound 5; [para-iodo-Phe^4]URP
B7: [Tiq^4]URP (peptide)
peptide: H-ACF[Tiq1c(1S)]KYCV-OH
modifications: disulfide 2-7
notes: H-Ala-Cys-Phe-Tiq-Lys-Tyr-Cys-Val-OH; also called compound 16
B8: [Pen^2, Tiq^4]URP (peptide)
peptide: AXFXKYCV
modifications: position 2 is beta,beta-dimethyl-cysteine (Pen); position 4 is Tiq; cyclic (Pen2-Cys7 disulfide)
notes: H-Ala-Pen-Phe-Tiq-Lys-Tyr-Cys-Val-OH; also called compound 20

Each molecule was assayed against T1, UT receptor present in rat aortic ring (rat, UniProt P49684 1-386) (assay: cell-based or functional assay).
T1 sequence (looked up): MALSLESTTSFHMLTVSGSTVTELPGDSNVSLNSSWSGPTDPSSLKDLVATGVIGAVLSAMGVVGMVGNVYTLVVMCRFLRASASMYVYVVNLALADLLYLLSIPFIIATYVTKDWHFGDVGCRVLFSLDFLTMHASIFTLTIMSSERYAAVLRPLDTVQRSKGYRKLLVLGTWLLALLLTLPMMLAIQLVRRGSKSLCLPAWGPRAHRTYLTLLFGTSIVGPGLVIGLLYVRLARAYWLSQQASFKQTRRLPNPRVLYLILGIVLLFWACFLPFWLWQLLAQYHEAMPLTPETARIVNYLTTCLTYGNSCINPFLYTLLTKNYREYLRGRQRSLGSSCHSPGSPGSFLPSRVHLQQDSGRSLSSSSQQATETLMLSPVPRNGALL

In the case of H-ETPDCFWKYCV-OH (disulfide 5-10) [human urotensin II (hUII)], the “hUII pEC50, rat isolated aorta pre-treated with 0.3 µM [Bip^4]URP” value is reported as 8.31.

For H-ETPDCFWKYCV-OH (disulfide 5-10) [human urotensin II (hUII)], the “hUII pEC50, rat isolated aorta pre-treated with 1 µM [Bip^4]URP” value was 7.6.

For H-ETPDCFWKYCV-OH (disulfide 5-10) [human urotensin II (hUII)], the “hUII pEC50, rat isolated aorta pre-treated with 3 µM [Bip^4]URP” value was 7.55.

H-ETPDCFWKYCV-OH (disulfide 5-10) [human urotensin II (hUII)] was tested, and the “hUII pEC50, rat isolated aorta, vehicle” value was 8.98.

These molecules were tested against T2, human urotensin II receptor (UT) (human, UniProt Q9UKP6 1-389) (assay: displacement of 0.2 nM 125I-hUII from CHO cells expressing human UT).
T2 construct: whole, on cells; also called hUT; hGPR14
T2 sequence (looked up): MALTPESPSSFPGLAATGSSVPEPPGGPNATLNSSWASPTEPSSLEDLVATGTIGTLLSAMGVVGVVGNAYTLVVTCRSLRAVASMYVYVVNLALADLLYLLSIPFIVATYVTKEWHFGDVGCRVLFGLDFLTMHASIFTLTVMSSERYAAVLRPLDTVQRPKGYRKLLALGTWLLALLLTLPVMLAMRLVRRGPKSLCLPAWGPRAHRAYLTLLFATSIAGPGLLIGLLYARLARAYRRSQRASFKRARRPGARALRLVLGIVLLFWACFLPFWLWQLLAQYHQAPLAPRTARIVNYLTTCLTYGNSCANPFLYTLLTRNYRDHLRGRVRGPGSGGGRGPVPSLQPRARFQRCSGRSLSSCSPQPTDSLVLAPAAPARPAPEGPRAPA

[Tbg^4]URP (peptide) and ACF[Tic]KYCV-OH (disulfide 2-7) [[Tic^4]URP] cannot be ordered by pEC50: less than 5 for the first, less than 5 for the second.

What follows are molecules tested against T2, human urotensin II receptor (UT) (assay: dissociation from living CHO-UT cells started with 10^-6 M URP + 10^-6 M urocontrin ([Bip^4]URP)).
Method: (§1) Binding assays were following known literature procedures using CHO cells stably transfected with hGPR14. […] After 90 min of incubation at room temperature, cells were washed, lysed, and the cell-bound radioactivity was quantified using a γ-counter. […] The cells were then washed, lysed, and the radioactivity counted on a γ-counter (1470 Automatic Gamma Counter, Perkin Elmer).

In the case of B1, the “half-life (t1/2)” value is reported as 12.1 min.

Molecular target: T1, UT receptor present in rat aortic ring
Experiment: cell-based or functional assay
Remark: another data set of the same source

Compared with H-ACF[Dip]KYCV-OH (disulfide 2-7) [[Dip^4]URP], ACF[d1Nal]KYCV (disulfide 2-7, also called compound 4; [D-Nal^4]URP) [[D-1-Nal^4]URP] is higher in “Aortic Ring contraction Emax (%), maximum efficacy at 10^-5.5 M” value: 23 % of KCl (40 mM) contraction for the first, 34 % of KCl (40 mM) contraction for the second.

Compared with ACF[Tic]KYCV-OH (disulfide 2-7) [[Tic^4]URP], H-ACF[Cha]KYCV-OH (disulfide 2-7) [[Cha^4]URP] is higher in “Aortic Ring contraction Emax (%), maximum efficacy at 10^-5.5 M” value: 43 % of KCl (40 mM) contraction for the first, 77 % of KCl (40 mM) contraction for the second.

For B6, the “Aortic Ring contraction Emax (%), maximum efficacy at 10^-5.5 M” value was 92 % of KCl (40 mM) contraction.

Going from B2 to ACF[dTic]KYCV (disulfide 2-7) [[D-Tic^4]URP], the “Aortic Ring contraction Emax (%)” value rises from 102 % of KCl (40 mM) contraction to 128 % of KCl (40 mM) contraction.

Compared with B3, H-ETPDCFWKYCV-OH (disulfide 5-10) [human urotensin II (hUII)] is higher in “Aortic Ring contraction Emax (%)” value: 100 % of KCl (40 mM) contraction for the first, 117 % of KCl (40 mM) contraction for the second.

Compared with H-ACF[dPhg]KYCV-OH (disulfide 2-7, also called compound 15) [[D-Phg^4]URP], ACF[dTiq]KYCV (disulfide 2-7, also called compound 17) [[D-Tiq^4]URP] is lower in “Aortic Ring contraction Emax (%)” value: 116 % of KCl (40 mM) contraction for the first, 113 % of KCl (40 mM) contraction for the second.

Compared with B4, B5 is lower in “Aortic Ring contraction Emax (%)” value: 148 % of KCl (40 mM) contraction for the first, 86 % of KCl (40 mM) contraction for the second.

First: B7
Second: ACF[dTle]KYCV-OH (disulfide 2-7, also called compound 8) [[D-Tbg^4]URP]
The “Aortic Ring contraction Emax (%)” value of the first is higher: 126 % of KCl (40 mM) contraction for the first, 99 % of KCl (40 mM) contraction for the second.

First: B3
Second: H-ETPDCFWKYCV-OH (disulfide 5-10) [human urotensin II (hUII)]
The “Aortic Ring contraction EC50” value of the first is 7-fold higher: 7 nM for the first, 1 nM for the second.

Compared with B3, H-ETPDCFWKYCV-OH (disulfide 5-10) [human urotensin II (hUII)] is higher in “Aortic Ring contraction pEC50” value: 8.09 for the first, 9.08 for the second.

Molecular target: T2, human urotensin II receptor (UT)
Experiment: displacement of 0.2 nM 125I-hUII from CHO cells expressing human UT
Remark: another data set of the same source
Method: as §1, with “Cell Culture and Binding Experiments: Transfected CHO cells expressing the human urotensin receptor (CHO-UT) were maintained in Ham-F12 medium with 10% fetal bovine serum (FBS), 2 mM L-glutamine, 100 Ul/mL each of penicillin and streptomycin, and 400 μg/mL G418. […] Binding” for “Binding”

First: B2
Second: ACF[d1Nal]KYCV (disulfide 2-7, also called compound 4; [D-Nal^4]URP) [[D-1-Nal^4]URP]
The IC50 of the first is 1.6-fold lower: 29 nM for the first, 46 nM for the second. The first is the more potent here.

H-ACF[dPhg]KYCV-OH (disulfide 2-7, also called compound 15) [[D-Phg^4]URP] and ACF[dTiq]KYCV (disulfide 2-7, also called compound 17) [[D-Tiq^4]URP] are within 1.5-fold of each other in IC50: 29 nM for the first, 21 nM for the second.

Compared with B4, B5 is 3.5-fold lower in IC50: 60 nM for the first, 17 nM for the second. The second is the more potent here.

First: B6
Second: B7
The IC50 of the first is 5.8-fold higher: 58 nM for the first, 10 nM for the second. The second is the more potent here.

With ACF[dTle]KYCV-OH (disulfide 2-7, also called compound 8) [[D-Tbg^4]URP] the IC50 was greater than 1000 nM.

Molecular target: T1, UT receptor present in rat aortic ring
Experiment: cell-based or functional assay
Remark: another data set of the same source

B3 was tested, and the “URP pEC50, rat aortic ring pre-treated with 10^-6 M [Bip^4]URP” value was 7.74.

With H-ACF[Bip]KYCV-OH (disulfide 2-7) [[Bip^4]URP] the “pIC50, reversal of contractile tone established in rat isolated aorta with 4 nM hUII” value was 7.72.

Molecular target: T2, human urotensin II receptor (UT)
Experiment: displacement of 0.2 nM 125I-hUII from CHO cells expressing human UT
Remark: another data set of the same source

First: B2
Second: ACF[d1Nal]KYCV (disulfide 2-7, also called compound 4; [D-Nal^4]URP) [[D-1-Nal^4]URP]
The pEC50 of the first is higher: 7.53 for the first, 7.33 for the second.

H-ACF[dPhg]KYCV-OH (disulfide 2-7, also called compound 15) [[D-Phg^4]URP] and ACF[dTiq]KYCV (disulfide 2-7, also called compound 17) [[D-Tiq^4]URP] are within 0.2 log units of each other in pEC50: 7.56 for the first, 7.68 for the second.

First: B4
Second: B8
The pEC50 of the first is higher: 7.22 for the first, less than 5 for the second.

Going from B5 to B6, the pEC50 falls from 7.77 to 7.24.

Each molecule was assayed against T2, human urotensin II receptor (UT) (assay: dissociation from living CHO-UT cells started with 10^-6 M URP alone).
Method: as §1

B1 was tested, and the “half-life (t1/2)” value was 13.1 min.
